Measured values: patent US8247168B2, “Regulation of gene expression by protein methylation” (University of Southern California, priority 1998, dated 2012)

Legend:
Gal4 DBD-GRIP1c = target: T1, Gal4 DBD-GRIP1c (Mus musculus, UniProt Q61026); assay: Reporter gene activation by Gal4 DBD-GRIP1c in transiently transfected CV-1 cells; format: cell-based; settings: co-expression with Gal4 DBD-GRIP1c, dose-dependent
T1 construct: coding for Gal4 DBD-GRIP1c where GRIP1c is GRIP1 amino acids 1121-1462; expressed in transfected cells; host or cells: CV-1 cells
Method: A) CV-1 cells in 6-well dishes (3.3 cm diameter well) were transiently transfected with 0.5 of μg pM.GRIP1c (coding for Gal4 DBD-GRIP1c where GRIP1c is GRIP1 amino acids 1121-1462), 0.5 μg of GK1 reporter gene (luciferase gene controlled by Gal4 binding sites) (Webb, P. et al., (1998) Mol. Endocrinol. 12:1605), and 0-0.8 μg of pSG5.HA-CARM1, using Superfectin (Qiagen) according to manufacturer's protocol. Total DNA was adjusted to 2.0 μg per well with the appropriate amount of pSG5. Cell extracts were prepared approximately 48 h after transfection and assayed with Promega Luciferase Assay kit. Relative light units of luciferase activity presented are the mean and standard deviation of three transfected wells. B) CV-1 cells were transfected as in A with the indicated amount of pM.GRIP1c and zero or 0.5 μg of pSG5.HA-CARM1.
In transient transfections of CV-1 cells, Gal4 DBD-GRIP1c weakly activates expression of a reporter gene with a promoter containing Gal4 binding sites; co-expression of CARM1 enhances reporter gene activity in a dose-dependent manner and provides a maximum stimulation of more than 10-fold (FIG. 5). CARM1 expression has little if any effect on the activity of Gal4DBD alone (FIG. 6A). CARM1 also enhances the activity of full length GRIP1 fused to Gal4DBD.

[1] = tested on: androgen receptor, estrogen receptor, and thyroid hormone receptor; assay: Reporter gene activation by hormone-activated nuclear receptors in transiently transfected CV-1 cells; format: cell-based; settings: co-expression of CARM1 with the NR and GRIP1, over NR+GRIP1 (lane e)
Method: (A) Transient transfection assays with CV-1 cells were performed as in FIG. 5 with 0.5 μg of GK1 reporter gene and 0.5 μg of each of the indicated vectors. (B) CV-1 cells were transiently transfected as in FIG. 5 with the following vectors, as indicated: 0.5 μg of nuclear receptor expression vector pSVAR0 (Brinkmann, A. O. et al. (1989) J. Steroid Biochem. Molec. Biol. 34:307) expressing AR, pHE0 (Green, S. et al. (1988) Nucleic Acids Res. 16:369) expressing ER, or pCMX.hTRβ1 (Feng, W. et al. (1998) Science 280:1747) expressing TR; 0.5 μg of a luciferase reporter gene with an appropriate promoter, MMTV promoter for AR, or MMTV promoter with the native glucocorticoid response elements replaced by a single estrogen response element for ER or palindromic thyroid hormone response element for TR (Umesono, K. and R. M. Evans (1989) Cell 57:1139); 0.5 μg of pSG5.HA-GRIP1; and 0.5 μg of pSG5.HA-CARM1 or pSG5.HA-CARM1 (VLD mutant). Transfection efficiency was monitored by using βgalactosidase activity expressed from 0.1 μg of co-transfected pCMV-βgal vector (Hong, H. et al. (1996) Proc. Natl. Acad. Sci. USA 93:4948-4952) as an internal control. After transfection, cells were grown in charcoal-treated serum; where indicated 20 nM hormone (H), i.e. dihydrotestosterone for AR, estradiol for ER, or triiodothyronine for TR, was included during the last 40 h of culture. […]

B1: CARM1: novel murine protein arginine methyltransferase and transcriptional coactivator, 608 amino acids (protein, listed as Mus musculus)
chain: MAAAAATAVGPGAGSAGVAGPGGAGPCATVSVFPGARLLTIGDANGEIQRHAEQQALRLEVRAGPDAAGIALYSHEDVCVFKCSVSRETECSRVGRQSFIITLGCNSVLIQFATPHDFCSFYNILKTCRGHTLERSVFSERTEESSAVQYFQFYGYLSQQQNMMQDYVRTGTYQRAILQNHTDFKDKIVLDVGCGSGILSFFAAQAGARKIYAVEASTMAQHAEVLVKSNNLTDRIVVIPGKVEEVSLPEQVDIIISEPMGYMLFNERMLESYLHAKKYLKPSGNMFPTIGDVHLAPFTDEQLYMEQFTKANFRYQPSFHGVDLSALRGAAVDEYFRQPVVDTFDIRILMAKSVKYTVNFLEAKEGDLHRIEIPFKFHMLHSGLVHGLAFWFDVAFIGSIMTVWLSTAPTEPLTHWYQVRCLFQSPLFAKAGDTLSGTCLLIANKRQSYDISIVAQVDQTGSKSSNLLDLKNPFFRYTGTTPSPPPGSHYTSPSENMWNTGSTYNLSSGVAVAGMPTAYDLSSVIAGGSSVGHNNLIPLANTGIVNHTHSRMGSIMSTGIVQGSSGAQGGGGSSSAHYAVNNQFTMGGPAISMASPMSIPTNTMHYGS
maximum stimulation of reporter gene activity (Gal4 DBD-GRIP1c): more than 10 fold
further enhancement of reporter gene expression [1]: 2 to 4 fold
